Sequences and labels used below:
B1: I283T-P284D-i284aP-N287P-S322T-N388M-E421V-C430N-L432F-L434W-S436N-C437F-G448E-H461T-G462R-i462aA-A463T (protein)
chain: MFLKSLREQINLLKRQGDLRIINRPVDSYLEAAAIIRRSTETKAPVPLMTNIKGYPGCSIVGGLAALSSNPEYPLSRVAMSLGLSTTASAQSIVQYLIDGLKKTPYLPVEIDSNSAPCKQNILRGEDASLAHFPIPQVHQHDGNRYVNTWGVFIVESPDGQWCNWSIQRVQYLNDRQMIALVFPSQHISDIWEEWVKIGKPMPYALVQGCEPIVPYIAGLPLLERNVNEAEYIGALYGKGIEVVKCETHDLRVPASSEVVIEGYFAITREGVEGPFGEFAGYTDNEPSLQPILSITAISWQDDPIWPVVAEGKPVDEYHTCTGIGDAAAIQNVLLTANLPVSFVWVPLYSACHLMIVSINRHWRQTHPDLTSEQLTKKVGDVIHQTRMSIKLPKIVVLDDDVDPADTESLLWALATRIHPVRKRYFYESNIFPWLNFYSEEERHNRKEKRVIIDALLPENTRTISSFDYAYPDDIKQRVLMHWETDFSHD
B2: V272R-I283T-P284D-i284aP-N287P-S322T-N388M-E421V-C430N-L432F-L434W-S436N-C437F-G448E-H461T-dG462-A463T (protein)
chain: B1 chain with V272R, R462G
B3: V272I-I283T-P284D-i284aP-N287P-S322T-N388M-E421V-C430R-L432F-L434W-S436N-C437F-H461T-G462R-i462aA-A463T (protein)
chain: B1 chain with V272I, N430R, E448G
B4: V272I-I283T-P284D-i284aP-N287P-S322T-N388M-E421V-C430N-L432F-L434W-S436N-C437F-H461T-G462R-i462aA-A463T (protein)
chain: B1 chain with V272I, E448G
B5: V272R-I283T-P284D-i284aP-N287P-S322T-N388M-E421V-C430N-L432F-L434W-S436N-C437F-H461T-G462R-i462aA-A463T (protein)
chain: B1 chain with V272R, E448G
B6: I283T-P284D-i284aP-N287P-S322T-N388M-E421V-C430N-L432F-L434W-S436N-G448E-H461T-G462R-i462aA-A463T (protein)
chain: B1 chain with F437C
B7: V272R-I283T-P284D-i284aP-N287P-S322T-N388M-E421V-C430N-L432F-L434W-S436N-H461T-G462R-i462aA-A463T (protein)
chain: B1 chain with V272R, F437C, E448G
B8: I283T-P284D-i284aP-N287P-S322T-H384S-N388M-E421V-C430N-L432F-L434W-S436N-C437F-H461T-G462R-i462aA-A463T (protein)
chain: B1 chain with H384S, E448G
B9: V272R-I283T-P284D-i284aP-N287P-S322T-N388M-E421V-C430N-L432F-L434W-S436N-C437F-H461T-dG462-A463T (protein)
chain: B1 chain with V272R, E448G, R462G
B10: V272R-I283T-P284D-i284aP-N287P-S322T-N388M-E421V-C430N-L432F-L434W-S436N-G448E-H461T-G462R-i462aA-A463T (protein)
chain: B1 chain with V272R, F437C
B11: I283T-P284D-i284aP-N287P-S322T-N388M-E421V-C430R-L432F-L434W-S436N-C437F-H461T-G462R-i462aA-A463T (protein)
chain: B1 chain with N430R, E448G
B12: A33P-I283T-P284D-i284aP-N287P-S322T-N388M-E421V-C430N-L432F-L434W-S436N-C437F-H461T-G462R-i462aA-A463T (protein)
chain: B1 chain with A33P, E448G
B13: V272R-I283T-P284D-i284aP-N287P-S322T-N388M-E421V-E428T-C430N-L432F-L434W-S436N-G448E-H461T-G462R-i462aA-A463T (protein)
chain: B1 chain with V272R, E428T, F437C
B14: V272R-I283T-P284D-i284aP-N287P-S322T-N388M-E421V-C430N-L432F-L434W-S436N-E441H-G448E-H461T-G462R-i462aA-A463T (protein)
chain: B1 chain with V272R, F437C, E441H
B15: V272R-I283T-P284D-i284aP-N287P-S322T-N388M-E421V-C430N-L432F-L434W-S436N-C437F-G448E-H461T-G462R-i462aA-A463T (protein)
chain: B1 chain with V272R
B16: G17S-V272R-I283T-P284D-i284aP-N287P-S322T-N388M-E421K-C430N-L432F-L434W-S436N-G448E-H461T-G462R-i462aA-A463T (protein)
chain: B1 chain with G17S, V272R, V421K, F437C
B17: K43E-I283T-P284D-i284aP-N287P-S322T-N388M-E421V-C430P-L432F-L434W-S436N-C437F-H461T-G462R-i462aA-A463T (protein)
chain: B1 chain with K43E, N430P, E448G
B18: I283T-P284D-i284aP-N287P-S322T-N388M-E421V-C430N-L432F-L434W-S436N-C437F-Y438L-H461T-G462R-i462aA-A463T (protein)
chain: B1 chain with Y438L, E448G
B19: I283T-P284D-i284aP-N287P-S322T-N388M-E421V-C430N-L432F-L434W-S436N-C437F-H461T-G462R-i462aA-A463T (protein)
chain: B1 chain with E448G
B20: V272I-I283T-P284D-i284aP-N287P-S322T-N388M-E421V-C430R-L432F-L434W-S436N-C437F-Y438L-H461T-G462R-i462aA-A463T (protein)
chain: B1 chain with V272I, N430R, Y438L, E448G
B21: V272R-I283T-P284D-i284aP-N287P-S322T-N388M-I418V-E421V-C430N-L432F-L434W-S436N-G448E-H461T-G462R-i462aA-A463T (protein)
chain: B1 chain with V272R, I418V, F437C
B22: V272I-I283T-P284D-i284aP-N287P-S322T-N388M-E421V-C430N-L432F-L434W-S436N-C437F-Y438L-H461T-G462R-i462aA-A463T (protein)
chain: B1 chain with V272I, Y438L, E448G
B23: I283T-P284D-i284aP-N287P-S322T-N388M-E421V-C430N-L432F-L434W-S436N-C437F-E441V-H461T-G462R-i462aA-A463T (protein)
chain: B1 chain with E441V, E448G
B24: I283T-P284D-i284aP-N287P-S322T-N388M-E421V-C430N-L432F-L434W-S436Q-C437F-H461T-G462R-i462aA-A463T (protein)
chain: B1 chain with N436Q, E448G
B25: V272K-I283T-P284D-i284aP-N287P-S322T-N388M-E421V-C430N-L432F-L434W-S436N-C437F-H461T-G462R-i462aA-A463T (protein)
chain: B1 chain with V272K, E448G
B26: I283T-P284D-i284aP-N287P-S322T-N388M-I418V-E421V-C430N-L432F-L434W-S436N-C437F-H461T-G462R-i462aA-A463T (protein)
chain: B1 chain with I418V, E448G
B27: V272R-I283T-P284D-i284aP-N287P-S322T-N388M-E421V-C430N-L432F-L434W-S436N-G448E-H461T-dG462-A463T (protein)
chain: B1 chain with V272R, F437C, R462G
B28: I283T-P284D-i284aP-N287P-S322T-N388M-E421V-C430R-L432F-L434W-S436N-C437F-Y438L-H461T-G462R-i462aA-A463T (protein)
chain: B1 chain with N430R, Y438L, E448G

Substitutions are numbered along the chain they refer to. Names and notes keep the numbering of the source.

This test concerns 3-methylcrotonic acid. Type of test: biochemical, Yersinia frederiksenii. The arrangement: key: “+” representing a low increase in activity; “++++” representing a high increase in activity.
In the case of B1, the “Activity relative to WT” value was “++++”.
Take B2: the “Activity relative to WT” value is given as “++++”.
As to B3, the “Activity relative to WT” value is given as “++++”.
With B4, the “Activity relative to WT” value is given as “++++”.
As for B5, the “Activity relative to WT” value was “++++”.
As to B6, the “Activity relative to WT” value is recorded as “++++”.
To B7 belongs “++++”.
In the case of B8, the “Activity relative to WT” value is given as “++++”.
As for B9, the entry is “++++”; as for B10, “++++”; as for B11, “++++”.
As for B12, the “Activity relative to WT” value was “++++”.
Take B13: the “Activity relative to WT” value is listed as “++++”.
Consider B14, for which the “Activity relative to WT” value was “++++”.
As for B15, the “Activity relative to WT” value is recorded as “++++”.
In the case of B16, the “Activity relative to WT” value is recorded as “++++”.
With B17, the “Activity relative to WT” value is “++++”.
Consider B18, for which the “Activity relative to WT” value is “++++”.
As for B19, the entry is “++++”; as for B20, “++++”.
On to B21, for which the “Activity relative to WT” value is “++++”.
On to B22, for which the “Activity relative to WT” value is “++++”.
To B23 belongs “++++”; to B24, “++++”.
To B25 belongs “++++”; to B26, “++++”.
As for B27, the entry is “++++”.
Take B28: the “Activity relative to WT” value is listed as “++++”.

For the origin of these results see patent US20250327097A1, “ORGANISMS PRODUCING LESS CROTONIC ACID” (Global Bioenergies, priority 2021, published 2025).
